The source of these data is publication PMC1424673.

The target of this series is T1, Irr (Bradyrhizobium japonicum, UniProt O85719 1-163).
T1 sequence: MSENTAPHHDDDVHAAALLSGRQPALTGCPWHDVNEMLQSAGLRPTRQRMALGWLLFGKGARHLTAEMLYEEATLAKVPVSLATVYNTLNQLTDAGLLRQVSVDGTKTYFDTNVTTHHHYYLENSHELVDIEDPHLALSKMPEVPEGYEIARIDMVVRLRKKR
Kind of series: EMSA. (In general: A gel shift assay detects complexes by their altered migration in electrophoresis.)

B1: bll5796 ICE-like probe (dsDNA)
DNA 1: CAGGAATTCGATAGCTTAGAACGCTTCTATGCCGACCTC
DNA 2: GTCGAGGTCGGCATAGAAGCGTTCTAAGCTATCGAATTC
Consider B1, for which the binding result is “binds”.

B2: blr3904 ICE-like probe (dsDNA)
DNA 1: CAGGAATTCGATACTTTAGAACCGTTTGAAACTGACCTC
DNA 2: GTCGAGGTCAGTTTCAAACGGTTCTAAAGTATCGAATTC
Turning to B2, the binding result is given as “binds”.

B3: non-specific pSK control (dsDNA)
DNA 1: CAGGAATTCGATATCAAGCTTATCGATACCGTCGACCTC
DNA 2: GTCGAGGTCGACGGTATCGATAAGCTTGATATCGAATTC
For B3, the binding result is given as “no binding”.
